From patent US20220033462A1 (ALLOGENE THERAPEUTICS, published 2022)

T1: recombinant human CD19-mouse IgG Fc fusion protein (human; mouse, UniProt P15391 20-291, limits assumed)
T1 construct: Staining reagent; not shown: mouse IgG Fc
T1 sequence (looked up): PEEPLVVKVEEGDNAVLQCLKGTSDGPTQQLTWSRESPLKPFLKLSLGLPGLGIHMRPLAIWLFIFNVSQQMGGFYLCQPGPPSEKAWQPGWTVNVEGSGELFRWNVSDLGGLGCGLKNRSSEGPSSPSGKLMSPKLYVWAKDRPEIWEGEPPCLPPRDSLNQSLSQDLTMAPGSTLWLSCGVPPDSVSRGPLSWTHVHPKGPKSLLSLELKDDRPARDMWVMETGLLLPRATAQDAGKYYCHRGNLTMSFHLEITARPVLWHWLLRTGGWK


Assays:
[1] = biological target: T2, biotinylated recombinant human PSMA-human IgG1 Fc fusion protein (human, UniProt Q04609 44-750, biotinylated (sites not given)); assay: flow cytometry, reporter Jurkat cells co-expressing P-CAR2 (FIGS. 6-9)
T2 construct: Staining reagent; not shown: human IgG1 Fc

[2] = biological target: T1, recombinant human CD19-mouse IgG Fc …; assay: flow cytometry, NFAT-/NFkB-luciferase reporter Jurkat cells expressing P-CAR2 (FIGS. 6-9)

T2 sequence (Q04609 44-750 limits assumed): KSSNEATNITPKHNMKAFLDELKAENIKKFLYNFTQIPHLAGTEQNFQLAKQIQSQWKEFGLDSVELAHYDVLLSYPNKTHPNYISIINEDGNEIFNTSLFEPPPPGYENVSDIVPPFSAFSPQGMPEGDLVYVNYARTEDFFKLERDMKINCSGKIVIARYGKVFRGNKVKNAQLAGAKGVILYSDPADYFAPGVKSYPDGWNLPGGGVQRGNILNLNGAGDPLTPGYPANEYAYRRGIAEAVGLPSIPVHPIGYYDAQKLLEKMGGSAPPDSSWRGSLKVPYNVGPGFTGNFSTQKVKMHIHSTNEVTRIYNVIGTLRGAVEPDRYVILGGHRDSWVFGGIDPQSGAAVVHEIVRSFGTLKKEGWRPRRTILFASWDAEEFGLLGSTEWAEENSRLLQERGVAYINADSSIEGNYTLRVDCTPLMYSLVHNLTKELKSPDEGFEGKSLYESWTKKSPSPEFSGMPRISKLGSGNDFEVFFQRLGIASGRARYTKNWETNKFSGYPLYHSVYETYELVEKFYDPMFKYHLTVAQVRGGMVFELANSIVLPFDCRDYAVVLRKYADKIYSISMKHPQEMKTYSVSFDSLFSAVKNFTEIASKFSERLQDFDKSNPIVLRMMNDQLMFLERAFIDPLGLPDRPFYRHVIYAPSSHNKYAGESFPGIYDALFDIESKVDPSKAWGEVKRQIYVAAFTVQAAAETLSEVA

Row | Binder | binding result [1] | binding result [2]
1 | N-CAR PD1-CTLA4 (SEQ ID No 1999 with intracellular domain SEQ ID No 2003) (other) EVQLQQSGPELVKPGTSVRISCKTSGYTFTEYTIHWVKQSHGKSLEWIGNINPNNGGTTYNQKFEDKATLTVDKSSSTAYMELRSLTSEDSAVYYCAAGWNFDYWGQGTTVTVSSGGGGSGGGGSGGGGSDIVMTQSHKFMSTSVGDRVSIICKASQDVGTAVDWYQQKPGQSPKLLIYWASTRHTGVPDRFTGSGSGTDFTLTITNVQSEDLADYFCQQYNSYPLTFGAGTMLDLKRAAATERRAEVPTAHPSPSPRPAGQFQTLVVGVVGGLLGSLVLLVWVLAVICSRAARGTIGARRTGQPLKEDPSAVPVFSVDYGELDFQWREKTPEPPVPCVPEQTEYATIVFPSGMGTSSPARRGSADGPRSAQPLRPEDGHCSWPLAVSLSKMLKKRSPLTTGVYVKMPPTEPECEKQFQPYFIPIN | binds | 
2 | N-CAR BTLA (SEQ ID No 1999 with intracellular domain SEQ ID No 2001) (other) EVQLQQSGPELVKPGTSVRISCKTSGYTFTEYTIHWVKQSHGKSLEWIGNINPNNGGTTYNQKFEDKATLTVDKSSSTAYMELRSLTSEDSAVYYCAAGWNFDYWGQGTTVTVSSGGGGSGGGGSGGGGSDIVMTQSHKFMSTSVGDRVSIICKASQDVGTAVDWYQQKPGQSPKLLIYWASTRHTGVPDRFTGSGSGTDFTLTITNVQSEDLADYFCQQYNSYPLTFGAGTMLDLKRAAATERRAEVPTAHPSPSPRPAGQFQTLVVGVVGGLLGSLVLLVWVLAVIRRHQGKQNELSDTAGREINLVDAHLKSEQTEASTRQNSQVLLSETGIYDNDPDLCFRMQEGSEVYSNPCLEENKPGIVYASLNHSVIGPNSRLARNVKEAPTEYASICVRS | binds | 
3 | N-CAR PD1-LAG3 (SEQ ID No 1999 with intracellular domain SEQ ID No 2004) (other) EVQLQQSGPELVKPGTSVRISCKTSGYTFTEYTIHWVKQSHGKSLEWIGNINPNNGGTTYNQKFEDKATLTVDKSSSTAYMELRSLTSEDSAVYYCAAGWNFDYWGQGTTVTVSSGGGGSGGGGSGGGGSDIVMTQSHKFMSTSVGDRVSIICKASQDVGTAVDWYQQKPGQSPKLLIYWASTRHTGVPDRFTGSGSGTDFTLTITNVQSEDLADYFCQQYNSYPLTFGAGTMLDLKRAAATERRAEVPTAHPSPSPRPAGQFQTLVVGVVGGLLGSLVLLVWVLAVICSRAARGTIGARRTGQPLKEDPSAVPVFSVDYGELDFQWREKTPEPPVPCVPEQTEYATIVFPSGMGTSSPARRGSADGPRSAQPLRPEDGHCSWPLHLWRRQWRPRRFSALEQGIHPPQAQSKIEELEQEPEPEPEPEPEPEPEPEPEQL | binds | 
4 | N-CAR CD244 (SEQ ID No 1999 with intracellular domain SEQ ID No 2002) (other) EVQLQQSGPELVKPGTSVRISCKTSGYTFTEYTIHWVKQSHGKSLEWIGNINPNNGGTTYNQKFEDKATLTVDKSSSTAYMELRSLTSEDSAVYYCAAGWNFDYWGQGTTVTVSSGGGGSGGGGSGGGGSDIVMTQSHKFMSTSVGDRVSIICKASQDVGTAVDWYQQKPGQSPKLLIYWASTRHTGVPDRFTGSGSGTDFTLTITNVQSEDLADYFCQQYNSYPLTFGAGTMLDLKRAAATERRAEVPTAHPSPSPRPAGQFQTLVVGVVGGLLGSLVLLVWVLAVIWRRKRKEKQSETSPKEFLTIYEDVKDLKTRRNHEQEQTFPGGGSTIYSMIQSQSSAPTSQEPAYTLYSLIQPSRKSGSRKRNHSPSFNSTIYEVIGKSQPKAQNPARLSRKELENFDVYS | binds | 
5 | P-CAR2 (SEQ ID No 2020) (other, Chimeric antigen receptor on the surface of transduced reporter Jurkat cells; also called positive signaling CAR with scFv from anti-CD19 antibody SJ25C1) EVKLQQSGAELVRPGSSVKISCKASGYAFSSYWMNWVKQRPGQGLEWIGQIYPGDGDTNYNGKFKGQATLTADKSSSTAYMQLSGLTSEDSAVYFCARKTISSVVDFYFDYWGQGTTVTVSSGGGGSGGGGSGGGGSDIELTQSPKFMSTSVGDRVSVTCKASQNVGTNVAWYQQKPGQSPKPLIYSATYRNSGVPDRFTGSGSGTDFTLTITNVQSKDLADYFCQQYNRYPYTSGGGTKLEIKRAAAIEVMYPPPYLDNEKSNGTIIHVKGKHLCPSPLFPGPSKPFWVLVVVGGVLACYSLLVTVAFIIFWVRSKRSRLLHSDYMNMTPRRPGPTRKHYQPYAPPRDFAAYRSRVKFSRSADAPAYQQGQNQLYNELNLGRREEYDVLDKRRGRDPEMGGKPRRKNPQEGLYNELQKDKMAEAYSEIGMKGERRRGKGHDGLYQGLSTATKDTYDALHMQALPPR |  | binds
